Data from patent publication US7037504B2, “Epidermal growth factor protein and gene, and methods of use therefor” (Waratah Pharmaceuticals, Inc., priority 2001, dated 2006).

Key:
carboxypeptidase B = biological target: T1, carboxypeptidase B (Homo sapiens, UniProt P15086); experiment: Resistance in vitro to digestion with carboxypeptidase B; assay type: in vitro ADME
T1 sequence (P15086 111-417): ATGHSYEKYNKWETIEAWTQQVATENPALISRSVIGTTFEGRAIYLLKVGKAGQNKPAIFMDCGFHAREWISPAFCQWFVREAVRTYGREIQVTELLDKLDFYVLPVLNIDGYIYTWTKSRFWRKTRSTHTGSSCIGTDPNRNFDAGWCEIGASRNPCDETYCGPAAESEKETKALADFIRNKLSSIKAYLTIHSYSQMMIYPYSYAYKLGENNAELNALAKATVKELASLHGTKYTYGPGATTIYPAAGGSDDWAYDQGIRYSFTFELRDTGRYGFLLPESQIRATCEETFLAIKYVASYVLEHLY

[1] = tested on: anaesthetized gastric fistula rats; experiment: Inhibition of gastric acid secretion in vivo; design: species or system rat; details: after intravenous bolus injection of 8 μg
[2] = tested on: streptozotocin-induced diabetic rats; experiment: Stimulation of islet neogenesis in vivo, glucose challenge in diabetic rats; design: species or system rat
Experimental: After treatment, rats were evaluated for ability to restore plasma glucose to resting levels, shown on the ordinate, as a function of time in minutes shown on the abscissa, after an oral glucose challenge.
EGF51N produced as above was used in an assay to measure to stimulation of islet neogenesis in vivo, as measured by lower blood concentration of treated animals to a subsequent challenge by glucose, to diabetic rats.

[3] = relative enzyme concentration (ratio of carboxypeptidase to EGF) 0.01
[4] = relative enzyme concentration (ratio of carboxypeptidase to EGF) 0.1
[5] = relative enzyme concentration (ratio of carboxypeptidase to EGF) 1 (excess enzyme)

Compound | % remaining (carboxypeptidase B; [3]) [%] | % remaining (carboxypeptidase B; [4]) [%] | % remaining (carboxypeptidase B; [5]) [%] | duration of inhibition of gastric acid production [1] [min] | onset of inhibition of gastric acid production [1] [min] | restoration of plasma glucose to resting levels after oral glucose challenge ([2]; 40 μg/kg/day of each of human gastrin and EGF51N, intraperitoneal continuous infusion for 14 days) | potency in stimulation of islet neogenesis ([2]; diabetic rats, glucose challenge, compared with positive control TGFα)
CC[C@H](C)[C@@H]1NC(=O)[C@H](Cc2ccc(O)cc2)NC(=O)CNC(=O)[C@H](C(C)C)NC(=O)[C@H](C(C)C)NC(=O)[C@@H](NC(=O)[C@H](CC(N)=O)NC(=O)[C@@H]2CSSC[C@@H]3NC(=O)[C@H](Cc4ccc(O)cc4)NC(=O)CNC(=O)[C@H](CC(=O)O)NC(=O)[C@H](Cc4c[nH]cn4)NC(=O)[C@H](CO)NC(=O)[C@H](CC(C)C)NC(=O)[C@@H]4CCCN4C(=O)[C@@H](NC(=O)[C@H](CCC(=O)O)NC(=O)[C@H](CO)NC(=O)[C@H](CC(=O)O)NC(=O)[C@H](CO)NC(=O)[C@@H](N)CC(N)=O)CSSC[C@H](NC(=O)[C@H](C(C)C)NC(=O)CNC(=O)[C@H](CC(=O)O)NC(=O)[C@H](Cc4c[nH]cn4)NC(=O)[C@H](CC(C)C)NC3=O)C(=O)N[C@@H](CCSC)C(=O)N[C@@H](Cc3ccc(O)cc3)C(=O)N[C@@H]([C@@H](C)CC)C(=O)N[C@@H](CCC(=O)O)C(=O)N[C@@H](C)C(=O)N[C@@H](CC(C)C)C(=O)N[C@@H](CC(=O)O)C(=O)N[C@@H](CCCCN)C(=O)N[C@@H](Cc3ccc(O)cc3)C(=O)N[C@@H](C)C(=O)N2)CSSC[C@@H](C(=O)N[C@@H](CCC(N)=O)C(=O)N[C@@H](Cc2ccc(O)cc2)C(=O)N[C@@H](CCCNC(=N)N)C(=O)N[C@@H](CC(=O)O)C(=O)N[C@@H](CC(C)C)C(=O)N[C@@H](CCCCN)C(=O)N[C@@H](Cc2c[nH]c3ccccc23)C(=O)N[C@@H](Cc2c[nH]c3ccccc23)C(=O)N[C@@H](CCC(=O)O)C(=O)N[C@@H](CC(C)C)C(=O)N[C@@H](CCCNC(=N)N)C(=O)O)NC(=O)[C@H](CCCNC(=N)N)NC(=O)[C@H](CCC(=O)O)NC(=O)CNC1=O [EGF53, reference compound] | 75 | 1 | 1 |  |  |  | 
EGF51N: modified human EGF, chain length 51 amino acids, C-terminus residue asparagine instead of glutamic acid; produced in Pichia pastoris (NSDSECPLSHDGYCLHDGVCMYIEALDKYACNCVVGYIGERCQYRSLKYYN; not fully specified; Recombinant human EGF51N) | 75 | 30 | 6 | 20 to 50 | 10 to 20 | Rapid restoration to resting levels of plasma glucose | equivalent to the positive control TGFα
